Test [1] has as its target T1, rHuman IGF-1 sR (IGF-1 sR), CF (R&D Systems Cat#391-GR) (human, UniProt P08069 31-932).
T1 construct: Purchased soluble receptor; also called insulin-like growth factor-1 soluble receptor; IGF-R1
Nature of the test: MSD ECL multi-spot plate, antigen immobilized; Fab 8 nM; blank spot 479.

The target of test [2] is T2, rHuman P-Cadherin/Fc Chimera, CF (R&D Systems Cat#861-PC) (human, UniProt P22223 108-654).
T2 construct: Purchased Fc chimera; not shown: Fc portion of the purchased chimera
The description is as above.

The target of test [3] is T3, rHuman Erythropoietin R/Fc Chimera, CF (R&D Systems Cat#963-ER) (human, UniProt P19235 25-250).
T3 construct: Purchased Fc chimera; also called EPO R/Fc; Epo R; not shown: Fc portion of the purchased chimera
T3 sequence: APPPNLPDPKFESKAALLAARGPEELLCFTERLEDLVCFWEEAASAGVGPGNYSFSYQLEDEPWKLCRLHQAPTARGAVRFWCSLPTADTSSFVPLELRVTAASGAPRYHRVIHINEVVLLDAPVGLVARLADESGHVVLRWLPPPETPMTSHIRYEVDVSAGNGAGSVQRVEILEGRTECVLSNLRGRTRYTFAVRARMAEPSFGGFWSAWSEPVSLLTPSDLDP
The description is as above.

Test [4] deals with T4, Recombinant Human DLL4 (R&D Systems Cat#1506-D4/CF) (human, UniProt Q9NR61 27-524).
T4 construct: Purchased recombinant protein; also called delta-like protein 4
The description is as above.

For test [5], the target named is T5, rHuman ErbB2/Fc Chimera, CF (R&D Systems Cat#1129-ER) (human, UniProt P04626 23-652).
T5 construct: Purchased Fc chimera; also called HER2/neu; not shown: Fc portion of the purchased chimera
The test is described as above.

Test [6] has as its target T6, rHuman EGF R/Fc Chimera, CF (R&D Systems Cat#344-ER) (human, UniProt P00533 25-645).
T6 construct: Purchased Fc chimera; not shown: Fc portion of the purchased chimera
The test is described as above.

Test [7] addresses T7, rHuman HGF R/c-MET/Fc Chimera, CF (R&D Systems Cat#358-MT/CF) (human, UniProt P08581 25-932).
T7 construct: Purchased Fc chimera; also called HGF R/Fc; not shown: Fc portion of the purchased chimera
Described as above.

Test [8] deals with T8, rHuman Notch-1/Fc Chimera, CF (R&D Systems Cat#3647-TK) (human, UniProt P46531 19-526).
T8 construct: Purchased Fc chimera; not shown: Fc portion of the purchased chimera
Described as above.

Test [9] addresses T9, rHuman CD44/Fc Chimera, CF (R&D Systems Cat#3660-CD) (human, UniProt P16070 21-220).
T9 construct: Purchased Fc chimera; not shown: Fc portion of the purchased chimera
The test is described as above.

Test [10] deals with T10, rHuman Notch-1/Fc Chimera, CF (R&D Systems Cat#3647-TK) (human, UniProt P46531 19-526).
T10 construct: Bought reagent; Fc part of the bought chimera not given
Description: ECL (MSD multi-spot), antigen spotted on plate; Fab 176.3 nM; blank spot 346.

The target of test [11] is T11, rHuman IGF-1 sR (insulin-like growth factor-1 soluble receptor), CF (R&D Systems Cat#391-GR) (human, UniProt P08069 31-932).
T11 construct: Bought soluble receptor; also called IGF-R1
Description: ECL (MSD multi-spot), antigen on plate, Fab 2 nM.

For test [12], the target named is T12, rHuman P-Cadherin/Fc Chimera, CF (R&D Systems Cat#861-PC) (human, UniProt P22223 108-654).
T12 construct: Bought Fc chimera; also called CDH3; not shown: Fc of the bought chimera
Description: ECL (MSD multi-spot), antigen on plate, Fab 2 nM.

Test [13] has as its target T13, rHuman Erythropoietin R/Fc Chimera, CF (R&D Systems Cat#963-ER) (human, UniProt P19235 25-250).
T13 construct: Bought Fc chimera; also called EPO R/Fc; Epo R; not shown: Fc of the bought chimera
T13 sequence: T3 sequence
Nature of the test: ECL (MSD multi-spot), antigen on plate, Fab 2 nM.

Test [14] concerns the target T14, Recombinant Human DLL4 (R&D Systems Cat#1506-D4/CF) (human, UniProt Q9NR61 27-524).
T14 construct: Bought recombinant protein; also called delta-like protein 4
Description: ECL (MSD multi-spot), antigen on plate, Fab 2 nM.

Test [15] deals with T15, rHuman ErbB2/Fc Chimera, CF (R&D Systems Cat#1129-ER) (human, UniProt P04626 23-652).
T15 construct: Bought Fc chimera; also called HER2/neu; not shown: Fc of the bought chimera
Description: ECL (MSD multi-spot), antigen on plate, Fab 2 nM.

In test [16] the target is T16, rHuman EGF R/Fc Chimera, CF (R&D Systems Cat#344-ER) (human, UniProt P00533 25-645).
T16 construct: Bought Fc chimera; also called ErbB-1; not shown: Fc of the bought chimera
Nature of the test: ECL (MSD multi-spot), antigen on plate, Fab 2 nM.

The target in test [17] is T17, rHuman HGF R/c-MET/Fc Chimera, CF (R&D Systems Cat#358-MT/CF) (human, UniProt P08581 25-932).
T17 construct: Bought Fc chimera; also called HGF R/Fc; not shown: Fc of the bought chimera
Nature of the test: ECL (MSD multi-spot), antigen on plate, Fab 2 nM.

In test [18] the target is T18, rHuman Notch-1/Fc Chimera, CF (R&D Systems Cat#3647-TK) (human, UniProt P46531 19-526).
T18 construct: Bought Fc chimera; not shown: Fc of the bought chimera
Nature of the test: ECL (MSD multi-spot), antigen on plate, Fab 2 nM.

Test [19] concerns the target T19, rHuman CD44/Fc Chimera, CF (R&D Systems Cat#3660-CD) (human, UniProt P16070 21-220).
T19 construct: Bought Fc chimera; not shown: Fc of the bought chimera
Nature of the test: ECL (MSD multi-spot), antigen on plate, Fab 2 nM.
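Further: blank spot per well as comparator with Hit at signal to blank ratio of 4 or more.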

B1: Fab VH5-51_IGHD5-18*01>3_IGHJ4*01_G100R & V3-4_IGLJ1*01 (Fab, V domains shown)
VH: EVQLVQSGAEVKKPGESLKISCKGSGYSFTSYWIGWVRQMPGKGLEWMGIIYPGDSDTRYSPSFQGQVTISADKSISTAYLQWSSLKASDTAMYYCARRRYSYGYDYFDYWGQGTLVTVSS
VL: QTVVTQEPSFSVSPGGTVTLTCGLSSGSVSTSYYPSWYQQTPGQAPRTLIYSTNTRSSGVPDRFSGSILGNKAALTITGAQADDESDYYCVLYMGSGISYVFGTGTKVTVL
notes: It was expressed as a Fab: CH1 with tags from Plasmid A and lambda CL from Plasmid E; also called Fab No. 23
As for B1, the ECL signal in test [1] was 1110 ECL signal; in [2] it was 669 ECL signal; in test [3], 911 ECL signal; in test [4], 5470 ECL signal; in test [5] it was 1330 ECL signal; in test [6], 1080 ECL signal. The ECL signal in [7] came to 1240 ECL signal; in [8], 916 ECL signal; in [9], 786 ECL signal.

B2: Fab VH1-46_IGHD3-10*01_IGHJ4*01 & B3_IGKJ1*01 (Fab, V domains shown)
VH: QVQLVQSGAEVKKPGASVKVSCKASGYTFTSYYMHWVRQAPGQGLEWMGIINPSGGSTSYAQKFQGRVTMTRDTSTSTVYMELSSLRSEDTAVYYCAREYYYGSGSYYNDYFDYWGQGTLVTVSS
VL: not shown
notes: also called IGHV1-46*01
B2 yielded an ECL signal in test [10] of 664.

B3: Fab VH1-46_IGHD6-6*01_IGHJ1*01_S102A_S103P_S104F & L6_IGKJ1*01_S31K (Fab, V domains shown)
VH: QVQLVQSGAEVKKPGASVKVSCKASGYTFTSYYMHWVRQAPGQGLEWMGIINPSGGSTSYAQKFQGRVTMTRDTSTSTVYMELSSLRSEDTAVYYCAREEYAPFSAEYFQHWGQGTLVTVSS
VL: EIVLTQSPATLSLSPGERATLSCRASQSVSKYLAWYQQKPGQAPRLLIYDASNRATGIPARFSGSGSGTDFTLTISSLEPEDFAVYYCQQRSNWPPWTFGQGTKVEIKR
notes: Fab
For B3, the ECL signal was 222 ECL signal in test [11]; 351 ECL signal in [12]; 326 ECL signal in test [13]; 10500 ECL signal in [14]; 337 ECL signal in test [15]; 197 ECL signal in test [16]. The ECL signal in test [17] worked out at 183 ECL signal; in [18], 202 ECL signal; in test [19] it was 146 ECL signal.

These data come from US20120058906A1 (published 2012).
